Measurements from patent publication US20250042957A1 (Molecular Partners, published 2025).

Tests used:
[1] = molecular target: T1, Aminoglycoside phosphotransferase (APH) (Enterococcus faecalis (Streptococcus …, UniProt P0A3Y5 2-264))
T1 chain: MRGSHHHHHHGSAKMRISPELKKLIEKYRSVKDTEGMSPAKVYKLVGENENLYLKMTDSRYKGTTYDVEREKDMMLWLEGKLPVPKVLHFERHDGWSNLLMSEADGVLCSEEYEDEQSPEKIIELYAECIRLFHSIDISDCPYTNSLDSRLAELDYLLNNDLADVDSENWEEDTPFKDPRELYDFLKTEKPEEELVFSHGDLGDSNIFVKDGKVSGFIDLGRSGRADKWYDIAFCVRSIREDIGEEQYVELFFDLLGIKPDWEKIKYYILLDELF

scCD3εγ [2] = molecular target: T2, scCD3εγ; assay: ELISA: plate-bound biotinylated scCD3εγ, His-tagged construct titrated without and with 100 nM soluble VEGF
T2 chain 1: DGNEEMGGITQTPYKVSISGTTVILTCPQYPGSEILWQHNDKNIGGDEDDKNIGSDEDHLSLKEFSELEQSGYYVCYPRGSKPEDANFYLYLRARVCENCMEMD
T2 chain 2: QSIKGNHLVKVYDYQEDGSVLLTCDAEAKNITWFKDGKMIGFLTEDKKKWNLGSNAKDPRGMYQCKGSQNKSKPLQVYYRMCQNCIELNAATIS
Procedure: (§1) The difference in binding of Switchdrug DARPins to scCD3εγ in presence and absence of VEGF was assessed. […] Said Switchdrug DARPins were mixed with a constant concentration of VEGF (100 nM) and tested for binding to scCD3εγ. […] The difference in EC50 of a construct in presence and absence of VEGF can be referred to as the “activation window”.
(§2) Switchdrug DARPins that were mixed with VEGF were titrated and pre-incubated for 1 day with VEGF in order to establish the thermodynamic equilibrium. These samples were loaded on the ELISA plate, incubated and washed, before the bound Switchdrug DARPins were detected as described above.

scCD3εγ [3] = molecular target: T2, scCD3εγ; assay: ELISA: plate-bound biotinylated scCD3εγ, His-tagged construct titrated in presence of 100 nM soluble VEGF
Procedure: as §1, §2

scCD3εγ [4] = molecular target: T2, scCD3εγ; assay: ELISA: plate-bound biotinylated scCD3εγ, His-tagged construct titrated, no VEGF
Procedure: as §1, §2

[5] = molecular target: T1, Aminoglycoside phosphotransferase (APH); assay: ELISA on APH, DARPin titrated
scCD3εγ [6] = molecular target: T2, scCD3εγ; assay: ELISA: plate-bound biotinylated scCD3εγ, His-tagged construct titrated in presence of 100 nM soluble VEGF
Procedure: as §1, §2

B1: Parent DARPin no 2 (SEQ ID NO: 87) (designed binder)
chain: DLGKKLLEAARAGQDDEVRILMANGADVNANDWFGITPLHLVVNNGHLEIIEVLLKYAADVNASDKSGWTPLHLAAYRGHLEIVEVLLKYGADVNAMDYQGYTPLHLAAEDGHLEIVEVLLKYGADVNAQDKFGKTAFDISIDNGNEDLAEILQKLN
In the case of B1, the Kd [1] is reported as 0.147 µM.

B2: Switchdrug DARPin 18-1 (designed binder)
chain: MRGSHHHHHHGSDLGQKLLEAAWAGQDDEVRELLKAGADVNAKNSRGWTPLHTAAQTGHLEIFEVLLKAGADVNAKNDKRVTPLHLAAALGHLEIVEVLLKAGADVNARDSWGTTPADLAAKYGHQDIAEVLQKAAGSPTPTPTTPTPTPTTPTPTPTGSDLDKKLLEAARAGQDDEVRILLKAGADVNAKDSTGWTPLHLAAPWGHPEIVEVLLKAGADVNAKDFQGWTPLHLAAAAGHLEIVEVLLKAGADVNAKDVYGWTPLHIAAASGHLEIVEVLLKAGADVNAKDWLGWTPLHLAASHGHLEIVEVLLKAGADVNAQDKSGKTPADLAARAGHQDIAEVLQKAA
notes: also called 2-in-1 DARPin18 in Format 1
In the case of B2, the “shift in EC50 upon addition of 100 nM VEGF” value (scCD3εγ [2]) is reported as roughly 3 fold, the “EC50 (read off the curve)” value (scCD3εγ [3]) is reported as roughly 0.04 µM and the “EC50 (read off the curve)” value (scCD3εγ [4]) is reported as roughly 0.1 µM.

B3: 2-in-1 DARPin 22 (SEQ ID NO: 91) (designed binder)
chain: DLGKKLLEAARAGQDDEVRILMANGADVNANDWFGITPLHLVVNNGHLEIIEVLLKYAADVNASDKSGWTPLHLAAYRGHLEIVEVLLKYGADVNAMDYQGYTPLHLAAEDGHLEIVEVLLKYGADVNAKDKFGRTPLHIAARNGHLEIVEVLLKAGADVNAADNTGTTPLHLAAYSGHLEIVEVLLKHGADVDASDVFGYTPLHLAAYWGHLEIVEVLLKNGADVNAMDSDGMTPLHLAAKWGYLEIVEVLLKHGADVNAQDKFGKTAFDISIDNGNEDLAEILQKAA
In the case of B3, the “EC50 (read off the curve)” value [5] is reported as roughly 0.01 µM and the Kd [1] is reported as 0.0526 µM.

B4: Switchdrug DARPin 18-3 (designed binder)
chain: MRGSHHHHHHGSDLDKKLLEAARAGQDDEVRILLKAGADVNAKDSTGWTPLHLAAPWGHPEIVEVLLKAGADVNAKDFQGWTPLHLAAAAGHLEIVEVLLKAGADVNAKDVYGWTPLHIAAASGHLEIVEVLLKAGADVNAKDWLGWTPLHLAASHGHLEIVEVLLKAGADVNAQDKSGKTPADLAARAGHQDIAEVLQKAAGSPTPTPTTPTPTPTTPTPTPTGSDLGKKLLEAARAGQDDEVRELLKAGADVNAKDKDGYTPLHLAAREGHLEIVEVLLKAGADVNAKDKDGYTPLHLAAREGHLEIVEVLLKAGADVNAQDKSGKTPADLAADAGHEDIAEVLQKAAGSPTPTPTTPTPTPTTPTPTPTGSDLGQKLLEAAWAGQDDEVRELLKAGADVNAKNSRGWTPLHTAAQTGHLEIFEVLLKAGADVNAKNDKRVTPLHLAAALGHLEIVEVLLKAGADVNARDSWGTTPADLAAKYGHQDIAEVLQKAA
notes: also called 2-in-1 DARPin18 in Format 3
With B4 the “EC50 (read off the curve)” value (scCD3εγ [6]) was roughly 0.09 µM.

B5: Switchdrug DARPin 15-1 (designed binder)
chain: MRGSHHHHHHGSDLGQKLLEAAWAGQDDEVRELLKAGADVNAKNSRGWTPLHTAAQTGHLEIFEVLLKAGADVNAKNDKRVTPLHLAAALGHLEIVEVLLKAGADVNARDSWGTTPADLAAKYGHQDIAEVLQKAAGSPTPTPTTPTPTPTTPTPTPTGSDLDKKLLEAARAGQDDEVRILLKAGADVNAKDSTGWTPLHLAAPWGHPEIVEVLLKAGADVNAKDFQGWTPLHLAAAAGHLEIVEVLLKAGADVNAKDWLGWTPLHLAASHGHLEIVEVLLKAGADVNAQDKSGKTPADLAARAGHQDIAEVLQKAA
notes: also called 2-in-1 DARPin15 in Format 1
B5 was tested, and the “shift in EC50 upon addition of 100 nM VEGF” value (scCD3εγ [2]) was roughly 18 fold, the “EC50 (read off the curve)” value (scCD3εγ [3]) was roughly 0.003 µM and the “EC50 (read off the curve)” value (scCD3εγ [4]) was roughly 0.05 µM.
